Experimental data reported in patent publication US20120128626A1 (ALDERBIO, published 2012).

Assays:
Experiment in all cases: cell-based or functional assay
Rat IL-6 = biological target: T1, Rat IL-6 (rat, UniProt P20607 25-211)
T1 sequence (looked up): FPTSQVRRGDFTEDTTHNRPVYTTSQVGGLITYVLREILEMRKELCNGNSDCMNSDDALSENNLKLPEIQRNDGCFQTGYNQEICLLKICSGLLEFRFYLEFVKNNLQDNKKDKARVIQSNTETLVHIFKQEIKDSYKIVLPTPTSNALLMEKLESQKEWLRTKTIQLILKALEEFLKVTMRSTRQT

Mouse IL-6 = biological target: T2, Mouse IL-6 (mouse, UniProt P08505 25-211)
T2 sequence (looked up): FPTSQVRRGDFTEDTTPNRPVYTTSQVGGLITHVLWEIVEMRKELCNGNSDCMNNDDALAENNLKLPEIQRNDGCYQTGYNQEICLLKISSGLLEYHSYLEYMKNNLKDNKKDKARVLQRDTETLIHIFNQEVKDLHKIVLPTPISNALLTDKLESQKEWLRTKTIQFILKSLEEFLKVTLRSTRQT

Human IL-6 = Human IL-6 (human, UniProt P05231 30-212)
Cynomolgus monkey IL-6 = biological target: T3, Cynomolgus monkey IL-6 (cynomolgus monkey, UniProt P79341 28-212, limits assumed)
T3 sequence (looked up): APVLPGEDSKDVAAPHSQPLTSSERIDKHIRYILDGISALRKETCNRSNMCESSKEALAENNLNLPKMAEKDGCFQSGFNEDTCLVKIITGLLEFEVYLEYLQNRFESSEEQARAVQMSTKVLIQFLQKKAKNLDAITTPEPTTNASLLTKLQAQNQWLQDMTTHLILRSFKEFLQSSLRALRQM

B1: Ab1 (antibody, human IgG1, kappa, N297A, V domains shown)
VH: EVQLVESGGGLVQPGGSLRLSCAASGFSLSNYYVTWVRQAPGKGLEWVGIIYGSDETAYATSAIGRFTISRDNSKNTLYLQMNSLRAEDTAVYYCARDDSSDWDAKFNLWGQGTLVTVSS
VL: AIQMTQSPSSLSASVGDRVTITCQASQSINNELSWYQQKPGKAPKLLIYRASTLASGVPSRFSGSGSGTDFTLTISSLQPDDFATYYCQQGYSLRNIDNAFGGGTKVEIKR
IC50, inhibition of IL-6-stimulated T1165 cell proliferation (Rat IL-6): 2060 pM
IC50, inhibition of IL-6-stimulated T1165 cell proliferation (Mouse IL-6): 1840 pM
IC50, inhibition of IL-6-stimulated T1165 cell proliferation (Human IL-6): 13 pM
IC50, inhibition of IL-6-stimulated T1165 cell proliferation (Cynomolgus monkey IL-6): 12 pM
